Measurements taken from PMC10786891, “Massively parallel profiling of RNA-targeting CRISPR-Cas13d”.
Numbering of substitutions follows the chain as printed. Names and notes keep the numbering of the source.

T1: EsCas13d, nuclease-dead (Eubacterium siraeum, UniProt B0MS50, R295A;H300A;R849A;H854A)
T1 sequence: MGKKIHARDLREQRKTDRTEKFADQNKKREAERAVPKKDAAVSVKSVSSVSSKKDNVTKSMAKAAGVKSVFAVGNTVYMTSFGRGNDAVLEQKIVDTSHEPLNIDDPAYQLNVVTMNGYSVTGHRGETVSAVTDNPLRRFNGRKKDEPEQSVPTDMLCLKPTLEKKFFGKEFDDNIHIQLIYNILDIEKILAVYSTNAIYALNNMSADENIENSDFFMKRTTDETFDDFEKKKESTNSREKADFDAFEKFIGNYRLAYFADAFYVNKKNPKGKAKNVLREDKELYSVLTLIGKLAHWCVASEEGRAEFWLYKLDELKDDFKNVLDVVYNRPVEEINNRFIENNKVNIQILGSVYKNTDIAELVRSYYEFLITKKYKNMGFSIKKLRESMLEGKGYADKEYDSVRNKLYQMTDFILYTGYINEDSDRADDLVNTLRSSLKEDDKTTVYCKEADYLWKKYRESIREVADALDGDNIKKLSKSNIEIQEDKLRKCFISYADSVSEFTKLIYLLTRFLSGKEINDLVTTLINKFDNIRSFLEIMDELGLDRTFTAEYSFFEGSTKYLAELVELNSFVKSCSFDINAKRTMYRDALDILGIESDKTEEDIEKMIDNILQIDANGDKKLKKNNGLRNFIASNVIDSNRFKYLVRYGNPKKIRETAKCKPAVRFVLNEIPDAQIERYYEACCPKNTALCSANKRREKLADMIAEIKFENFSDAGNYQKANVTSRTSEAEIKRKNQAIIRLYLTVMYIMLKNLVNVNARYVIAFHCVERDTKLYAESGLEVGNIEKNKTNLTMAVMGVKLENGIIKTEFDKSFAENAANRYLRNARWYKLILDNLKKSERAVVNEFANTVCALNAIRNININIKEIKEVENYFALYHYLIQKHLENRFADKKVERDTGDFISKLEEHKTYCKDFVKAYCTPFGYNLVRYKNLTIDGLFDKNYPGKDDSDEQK

B1: target 1 C6A,A9U (mixed)
RNA 1: CACCCGUGCAAAAAUGCAGGGGUCUAAAACUGAGCGGAUAACCUCUCUAUGG
RNA 2: GGGAAUGGAUCCACAUCUACGAAUUCGUACCAUAGAGAGGUUUUCAGCUCACCGAGAUCGGAAGAGCACACGU
B2: target 1 insC 3' of 16,insG 3' of 7 (mixed)
RNA 1: B1 RNA 1
RNA 2: GGGAAUGGAUCCACAUCUACGAAUUCGUACCAUAGACGAGGUUAUCGCGCUCACCGAGAUCGGAAGAGCACACGU
B3: target 1 C2A,A9U (mixed)
RNA 1: B1 RNA 1
RNA 2: B1 RNA 2 with A46C, C50A
B4: target 1 insG 3' of 20,insG 3' of 8 (mixed)
RNA 1: B1 RNA 1
RNA 2: B2 RNA 2 with U33G, A34U, G35A, A36G, C37A, C46G, G47C
B5: target 2 MT 5'PFS GCU 3'PFS AAG (mixed)
RNA 1: CACCCGUGCAAAAUUGCAGGGGUCUAAAACCUUCUCCAAAUUGUUUCAUCCU
RNA 2: GGGAAUGGAUCCACAUCUACGAAUUCGCUAGGAUGAAACAAUUUGGAGAAGAAGAGAUCGGAAGAGCACACGU
B6: target 2 MT 5'PFS AUA 3'PFS UAU (mixed)
RNA 1: B5 RNA 1
RNA 2: B5 RNA 2 with G27A, C28U, U29A, A52U, G54U
B7: target 2 MT 5'PFS AGU 3'PFS UCU (mixed)
RNA 1: B5 RNA 1
RNA 2: B5 RNA 2 with G27A, C28G, A52U, A53C, G54U
B8: target 2 MT 5'PFS GAC 3'PFS CGG (mixed)
RNA 1: B5 RNA 1
RNA 2: B5 RNA 2 with C28A, U29C, A52C, A53G
B9: target 2 MT 5'PFS AUA 3'PFS UAA (mixed)
RNA 1: B5 RNA 1
RNA 2: B5 RNA 2 with G27A, C28U, U29A, A52U, G54A
B10: target 2 MT 5'PFS CAU 3'PFS CCC (mixed)
RNA 1: B5 RNA 1
RNA 2: B5 RNA 2 with G27C, C28A, A52C, A53C, G54C
B11: target 2 MT 5'PFS AAG 3'PFS UCU (mixed)
RNA 1: B5 RNA 1
RNA 2: B5 RNA 2 with G27A, C28A, U29G, A52U, A53C, G54U
B12: target 2 MT 5'PFS GGC 3'PFS CAU (mixed)
RNA 1: B5 RNA 1
RNA 2: B5 RNA 2 with C28G, U29C, A52C, G54U
B13: target 2 MT 5'PFS GCU 3'PFS AAU (mixed)
RNA 1: B5 RNA 1
RNA 2: B5 RNA 2 with G54U
B14: target 2 MT 5'PFS GUA 3'PFS AAG (mixed)
RNA 1: B5 RNA 1
RNA 2: B5 RNA 2 with C28U, U29A
B15: target 2 MT 5'PFS GGC 3'PFS AGA (mixed)
RNA 1: B5 RNA 1
RNA 2: B5 RNA 2 with C28G, U29C, A53G, G54A
B16: target 2 MT 5'PFS CAU 3'PFS CCA (mixed)
RNA 1: B5 RNA 1
RNA 2: B5 RNA 2 with G27C, C28A, A52C, A53C, G54A
B17: target 2 MT 5'PFS AUA 3'PFS UAC (mixed)
RNA 1: B5 RNA 1
RNA 2: B5 RNA 2 with G27A, C28U, U29A, A52U, G54C
B18: target 2 MT 5'PFS GCU 3'PFS CCG (mixed)
RNA 1: B5 RNA 1
RNA 2: B5 RNA 2 with A52C, A53C
B19: target 2 MT 5'PFS GGC 3'PFS CAA (mixed)
RNA 1: B5 RNA 1
RNA 2: B5 RNA 2 with C28G, U29C, A52C, G54A
B20: target 2 MT 5'PFS AUU 3'PFS CGC (mixed)
RNA 1: B5 RNA 1
RNA 2: B5 RNA 2 with G27A, C28U, A52C, A53G, G54C
B21: target 2 MT 5'PFS UUU 3'PFS AAA (mixed)
RNA 1: B5 RNA 1
RNA 2: B5 RNA 2 with G27U, C28U, G54A
B22: target 2 MT 5'PFS UUU 3'PFS AAU (mixed)
RNA 1: B5 RNA 1
RNA 2: B5 RNA 2 with G27U, C28U, G54U
B23: target 2 MT 5'PFS GUA 3'PFS UCG (mixed)
RNA 1: B5 RNA 1
RNA 2: B5 RNA 2 with C28U, U29A, A52U, A53C
B24: target 2 MT 5'PFS CAU 3'PFS CCG (mixed)
RNA 1: B5 RNA 1
RNA 2: B5 RNA 2 with G27C, C28A, A52C, A53C
B25: target 2 MT 5'PFS GGC 3'PFS CAG (mixed)
RNA 1: B5 RNA 1
RNA 2: B5 RNA 2 with C28G, U29C, A52C
B26: target 2 MT 5'PFS GGC 3'PFS CAC (mixed)
RNA 1: B5 RNA 1
RNA 2: B5 RNA 2 with C28G, U29C, A52C, G54C
B27: target 2 MT 5'PFS GUA 3'PFS UCU (mixed)
RNA 1: B5 RNA 1
RNA 2: B5 RNA 2 with C28U, U29A, A52U, A53C, G54U
B28: target 2 MT 5'PFS GGC 3'PFS UAC (mixed)
RNA 1: B5 RNA 1
RNA 2: B5 RNA 2 with C28G, U29C, A52U, G54C
B29: target 2 MT 5'PFS GUA 3'PFS AAA (mixed)
RNA 1: B5 RNA 1
RNA 2: B5 RNA 2 with C28U, U29A, G54A
B30: target 2 MT 5'PFS UCG 3'PFS CUA (mixed)
RNA 1: B5 RNA 1
RNA 2: B5 RNA 2 with G27U, U29G, A52C, A53U, G54A
B31: target 2 MT 5'PFS UUU 3'PFS AAC (mixed)
RNA 1: B5 RNA 1
RNA 2: B5 RNA 2 with G27U, C28U, G54C
B32: target 2 MT 5'PFS UUU 3'PFS AAG (mixed)
RNA 1: B5 RNA 1
RNA 2: B5 RNA 2 with G27U, C28U
B33: target 2 MT 5'PFS CUU 3'PFS AUU (mixed)
RNA 1: B5 RNA 1
RNA 2: B5 RNA 2 with G27C, C28U, A53U, G54U
B34: target 2 MT 5'PFS AGU 3'PFS UCC (mixed)
RNA 1: B5 RNA 1
RNA 2: B5 RNA 2 with G27A, C28G, A52U, A53C, G54C
B35: target 2 MT 5'PFS GGC 3'PFS AGC (mixed)
RNA 1: B5 RNA 1
RNA 2: B5 RNA 2 with C28G, U29C, A53G, G54C
B36: target 2 MT 5'PFS GUA 3'PFS AAU (mixed)
RNA 1: B5 RNA 1
RNA 2: B5 RNA 2 with C28U, U29A, G54U
B37: target 2 MT 5'PFS GGC 3'PFS AGG (mixed)
RNA 1: B5 RNA 1
RNA 2: B5 RNA 2 with C28G, U29C, A53G

target: T1, EsCas13d, nuclease-dead; experiment: crRNA (strand 1, pre-loaded); Mg2+; 40 mM Tris-HCl pH 7.5, 150 mM NaCl, 6 mM MgCl2, 1 mM DTT, 0.1% Tween-20, 0.2 mg/ml BSA; 25 C; 10 min per concentration, then washed; details: tags: His6-TwinStrep-SUMO cleaved; N-terminal SNAP kept (SNAP-Surface 488); label: 3' end held by stalled T7 RNA polymerase

Going from B1 to B2, the Kd rises from 7.38 ± 0.22 nM to 66 ± 14 nM (8.9-fold). The first binds more tightly here.

First: B3
Second: B4
The Kd of the first is 4.8-fold lower: 8.3 ± 0.4 nM for the first, 40 ± 4 nM for the second.

Going from B5 to B6, the Kd falls from 11.3 ± 2 nM to 7.1 ± 1.4 nM (1.6-fold).

Going from B7 to B8, the Kd falls from 21.3 ± 3.4 nM to 8.9 ± 1 nM (2.4-fold).

Going from B9 to B10, the Kd rises from 5.5 ± 1.1 nM to 16 ± 6 nM (2.9-fold). The first binds more tightly here.

B11 and B12 are within error of each other in Kd: 20 ± 6 nM for the first, 14.4 ± 2 nM for the second.

Compared with B13, B14 is 1.7-fold lower in Kd: 12 ± 4 nM for the first, 7 ± 0.6 nM for the second.

B15 and B16 are within error of each other in Kd: 10.4 ± 2 nM for the first, 11.5 ± 1.6 nM for the second.

Going from B17 to B18, the Kd rises from 7.2 ± 1.6 nM to 17.9 ± 3.4 nM (2.5-fold).

B19 and B20 are within error of each other in Kd: 8.9 ± 1.7 nM for the first, 7.8 ± 0.6 nM for the second.

B21 and B22 are within error of each other in Kd: 8.9 ± 1.2 nM for the first, 9.9 ± 1.2 nM for the second.

First: B23
Second: B24
The Kd of the first is 2.3-fold higher: 9.5 ± 0.7 nM for the first, 4.07 ± 0.31 nM for the second. The second binds more tightly here.

B25 and B26 are within error of each other in Kd: 12.1 ± 1.4 nM for the first, 15.8 ± 3.1 nM for the second.

B27 and B28 are within error of each other in Kd: 18.6 ± 2.7 nM for the first, 18.9 ± 3.5 nM for the second.

First: B29
Second: B30
The Kd of the first is 5.8-fold lower: 5.5 ± 0.7 nM for the first, 32 ± 10 nM for the second.

B31 and B32 are within error of each other in Kd: 7.3 ± 0.8 nM for the first, 7.1 ± 0.9 nM for the second.

Compared with B33, B34 is 13-fold higher in Kd: 3.9 ± 0.4 nM for the first, ~51 nM for the second.

Compared with B35, B36 is 2.1-fold lower in Kd: 12.1 ± 1.6 nM for the first, 5.8 ± 0.6 nM for the second. The second binds more tightly here.

For B37, the Kd was 14.9 ± 1.8 nM.
